Our source for the Kd values is patent JP2021054739A (dated 2021).

The target of the experiment is T1, Recombinant Human CEACAM-5/CD66e Protein, CF (R&D SYSTEMS) (human, UniProt P06731 35-685).
T1 construct: Bought recombinant protein, immobilised on a CM5 chip by amine coupling; also called 抗原CEACAM5
T1 sequence (looked up): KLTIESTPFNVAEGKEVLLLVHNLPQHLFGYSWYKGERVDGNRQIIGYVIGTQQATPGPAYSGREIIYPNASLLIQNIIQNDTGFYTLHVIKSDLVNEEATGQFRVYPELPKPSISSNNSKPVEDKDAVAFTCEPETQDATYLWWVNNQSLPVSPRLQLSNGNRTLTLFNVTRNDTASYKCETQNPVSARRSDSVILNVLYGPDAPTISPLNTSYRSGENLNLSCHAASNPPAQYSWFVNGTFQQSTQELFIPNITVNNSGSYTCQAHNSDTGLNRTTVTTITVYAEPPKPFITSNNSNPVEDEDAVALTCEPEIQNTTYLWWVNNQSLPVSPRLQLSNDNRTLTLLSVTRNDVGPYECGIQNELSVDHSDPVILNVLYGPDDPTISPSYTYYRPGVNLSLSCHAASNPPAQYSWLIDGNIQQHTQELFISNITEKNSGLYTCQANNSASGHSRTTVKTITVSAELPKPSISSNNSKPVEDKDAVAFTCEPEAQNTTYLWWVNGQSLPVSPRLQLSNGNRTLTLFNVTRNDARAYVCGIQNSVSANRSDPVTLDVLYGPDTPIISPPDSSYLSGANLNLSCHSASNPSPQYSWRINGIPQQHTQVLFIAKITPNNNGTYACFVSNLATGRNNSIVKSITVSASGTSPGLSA
Briefly: SPR, Biacore T200; CEACAM5 immobilised on CM5 (279 RU), CEA-V2122 as analyte, single-cycle kinetics, bivalent analyte fit; KD = kd1/ka1.

B1: CEA-V2122 (scFv)
chain: QVKLEQSGAEVVKPGASVKLSCKASGFNIKDSYMHWLRQGPGQRLEWIGWIDPENGDTEYAPKFQGKATFTTDTSANTAYLGLSSLRPEDTAVYYCNEGTPTGPYYFDYWGQGTLVTVSSGGGGSGGGGSGGGGSENVLTQSPSSMSVSVGDRVNIACSASSSVPYMHWLQQKPGKSPKLLIYLTSNLASGVPSRFSGSGSGTDYSLTISSVQPEDAATYYCQQRSSYPLTFGGGTKLEIKGGGGSGGGGAEAGITGTWSDQLGDTFIVTAGADGALTGTYENAVGGAESRYVLTGRYDSAPATDGSGTALGWTVAWKNNSKNAHSATTWSGQYVGGADAKINTQWLLTSGTTNANAWKSTLVGHDTFTKVKPSAASHHHHHH
notes: Fusion of an scFv with a streptavidin mutant; also called scFv-V2122; CEA-Cupid
Regarding B1, the Kd is 1.08 pM.
